Laboratory results reported in patent US20080233118A1 (Novartis, published 2008).

Molecular target: T1, human M-CSF (macrophage colony stimulating factor) (human, UniProt P09603 33-190, limits assumed)
T1 sequence: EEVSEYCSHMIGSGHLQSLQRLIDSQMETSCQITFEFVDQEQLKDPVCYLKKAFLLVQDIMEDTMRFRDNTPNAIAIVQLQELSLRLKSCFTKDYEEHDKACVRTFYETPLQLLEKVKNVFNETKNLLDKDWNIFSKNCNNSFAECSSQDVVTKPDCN
Assay: cell-based or functional assay

EC50 of M-CSF neutralization: 2 ng/mL
B1: M-CSF-specific murine antibody RX1 (antibody, V domains shown)
VH: DVQLQESGPGLVKPSQSLSLTCTVTDYSITSDYAWNWIRQFPGNKLEWMGYISYSGSTSYNPSLKSRISITRDTSKNQFFLQLNSVTTEDTATYYCASFDYAHAMDYWGQGTSVTVSS
VL: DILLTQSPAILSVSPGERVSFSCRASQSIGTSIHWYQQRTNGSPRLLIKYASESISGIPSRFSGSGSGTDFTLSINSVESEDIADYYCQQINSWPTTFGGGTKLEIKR
